This is an account of results in patent US7838495B2, “Compositions and methods of use of EPB1, and ErbB3 binding protein” (University of Maryland, Baltimore, priority 2007, dated 2010).

One assay relates to Androgen Regulated Genes. The assay is described as follows: Microarray analysis of EBP1 and vector transfected C81 cells. The class given is cell-based, human. To be noted: EBP1 transfected C81 cells vs vector control. Here is the method:
Microarray Analysis and Bioinformatics. RNA was prepared using the Trizol Reagent as previously described (8). Microarray processing and data analysis was performed at Genome Explorations (Nashville, Tenn.). U133A oligonucleotide arrays (Affymetrix) containing ˜33,000 full length annotated genes together with additional probe sets designed to represent EST sequences were used for the analysis. Only genes with a minimum expression level of 500 were included in this analysis. […] Oncomine analyses were performed by using Oncomine 3.0 (www.oncomine.org). Real Time Quantitative Reverse-Transcription PCR. Both cell culture samples and a commercial panel of cDNAs from normal prostate and prostate tumors (TissueScan, Origene, Rockville, Md.) were examined. The method of Nakanishi et al. (15) was used as previously described. Real-time quantitative RT-PCR was performed on the LightCycler® (Roche) platform. The following forward and reverse primers were selected using Primer Express software and synthesized by the Core Laboratory of University of Maryland School of Medicine: Ebp1, sense: 5′-GCA CGC CAA TAG AAG G-3′ (SEQ ID NO: 16) and antisense: 5′-GTA AAC GGC ATG GCA TC-3′ (SEQ ID NO: 17) kallikrein-2 sense: 5′-CAT CCA GTC TCG GAT TG-3′ (SEQ ID NO: 18) and antisense: 5′-CTC ATA TTG TAG AGC GGG T-3′ (SEQ ID NO: 19), TSPY, sense: 5′-CAGGGCTTCTCATTCCACTC-3′ (SEQ ID NO: 20) and antisense: 5′-CCATCATATTCAACTCAACAA CTGG-3′ (16; SEQ ID NO: 21), AGR2, sense: 5′-ATTGGCAGAGCAGTTTCTCC-3′ (SEQ ID NO: 22) and antisense, 5′-GAGCTGTATCTGCAGGTTCGT (17; SEQ ID NO: 23) 13-Actin, sense: 5′-GCTATCCAGGCTGTGCTATC-3′ (SEQ ID NO: 24) and antisense 5′-TGT CAC GCA CGA TTT CC-3′ (SEQ ID NO: 25). A SYBR®Green PCR Kit was used as per the manufacturer's instructions (Applied Biosystems, Foster City, Calif.) and the analyses were performed in duplicate or triplicate.

In the next assay the test system is C81 cells. The assay is described as follows: HRG-induced growth of C81 transfectants. The class given is cell-based, human. The note with it: ectopic expression of EBP1, androgen-free media. Here is the method:
FIG. 6A-C. EBP1 overexpression inhibits the response to HRG A. EBP1 and vector control transfected cells were plated in complete media at 5×10^3 cells/well for one day. The next day, cells were switched to steroid reduced-media and HRG added at the indicated concentrations. Total cell numbers were determined seven days later by MTT assay. Each point represents mean±S.E. of 6 wells. Data is representative of three experiments. B. AKT activation in response to HRG C81-EBP1 or vector control cells were serum starved overnight and then treated with HRG (20 ng/ml) for the indicated times (mm). Cell lysates were immunoblotted with antibody to phospho-AKT or total AKT as indicated. C. […]
Western Blot Analysis. […] For soft agar growth assays, increasing concentrations of cells (as indicated) were plated in 35 mm Petri dishes in 0.3% agar in complete media and colonies were counted after 10 days of incubation (21). […] Relative cell growth was determined using a Promega Proliferation Reagent (Promega, Madison Wis.) as per manufacturer's instructions with absorbance being read at […] using a Dynex plate reader. […] Luciferase activity was determined using the Promega Dual luciferase assay kit as described by the manufacturer. […] Tumors were measured with calipers. Tumor volumes were calculated by the formula width^2×length/2 […]. Mean tumor volume±S.D. were calculated and plotted against time. […]

B1: EBP1: ErbB3 binding protein (SEQ ID NO: 2), AR corepressor, here ectopically expressed in cancer cells by stable transfection of an expression plasmid (protein, listed as Homo sapiens)
chain: MSGEDEQQEQTIAEDLVVTKYKMGGDIANRVLRSLVEASSSGVSVLSLCEKGDAMIMEETGKIFKKEKEMKKGIAFPTSISVNNCVCHFSPLKSDQDYILKEGDLVKIDLGVHVDGFIANVAHTFVVDVAQGTQVTGRKADVIKAAHLCAEAALRLVKPGNQNTQVTEAWNKVAHSFNCTPIEGMLSHQLKQHVIDGEKTIIQNPTDQQKKDHEKAEFEVHEVYAVDVLVSSGEGKAKDAGQRTTIYKRDPSKQYGLKMKTSRAFFSEVERRFDAMPFTLRAFEDEKKARMGVVECAKHELLQPFNVLYEKEGEFVAQFKFTVLLMPNGPMRITSGPFEPDLYKSEMEVQDAELKALLQSSASRKTQKKKKKKASKTAENATSGETLEENEAGD
modifications: FLAG tag
With B1, in the assay on Androgen Regulated Genes, the “Fold Decrease, AGR2” value worked out at 7.1; the “Fold Decrease, Androgen regulated serine protease TMPRSS2” value came to 4.0; the “Fold Decrease, Prostate Cancer overexpressed POV” value is listed as 5; the “Fold Decrease, Prostate Differentiation Factor mRNA” value is 5.4. In addition, in the assay with Androgen Regulated Genes, the “Fold Decrease, Prostate Specific Antigen” value amounted to 5.5; the “Fold Decrease, Prostatic Kallikrein 2” value was found to be 5.4; the “Fold Decrease, TSPY” value was 9.5. Besides, in the assay on C81 cells, the “ability of C81 cells to grow in response to HRG” value is on record as “completely abrogated”.
